Patent publication US20170137467A1 (CHROMOTEK, published 2017)

T1: BC2T Q11G
T1 construct: positional scanning library member
T1 peptide: Ac-PDRKAAVSHWGQ-NH2

T2: BC2T Q11T
T2 construct: positional scanning library member
T2 peptide: Ac-PDRKAAVSHWTQ-NH2

T3: BC2T Q11A
T3 construct: positional scanning library member
T3 peptide: Ac-PDRKAAVSHWAQ-NH2

T4: BC2T S8G
T4 construct: positional scanning library member
T4 peptide: Ac-PDRKAAVGHWQQ-NH2

T5: BC2T S8R
T5 construct: positional scanning library member
T5 peptide: Ac-PDRKAAVRHWQQ-NH2

T6: BC2T Q12G
T6 construct: positional scanning library member
T6 peptide: Ac-PDRKAAVSHWQG-NH2

T7: BC2T H9R
T7 construct: positional scanning library member
T7 peptide: Ac-PDRKAAVSRWQQ-NH2

T8: BC2T H9P
T8 construct: positional scanning library member
T8 peptide: Ac-PDRKAAVSPWQQ-NH2

T9: BC2T Q12P
T9 construct: positional scanning library member
T9 peptide: Ac-PDRKAAVSHWQP-NH2

T10: BC2T S8T
T10 construct: positional scanning library member
T10 peptide: Ac-PDRKAAVTHWQQ-NH2

T11: BC2T Q11K
T11 construct: positional scanning library member
T11 peptide: Ac-PDRKAAVSHWKQ-NH2

T12: BC2T W10A
T12 construct: positional scanning library member
T12 peptide: Ac-PDRKAAVSHAQQ-NH2

T13: BC2T Q12Y
T13 construct: positional scanning library member
T13 peptide: Ac-PDRKAAVSHWQY-NH2

T14: BC2T S8H
T14 construct: positional scanning library member
T14 peptide: Ac-PDRKAAVHHWQQ-NH2

T15: BC2T Q11S
T15 construct: positional scanning library member
T15 peptide: Ac-PDRKAAVSHWSQ-NH2

T16: BC2T Q12V
T16 construct: positional scanning library member
T16 peptide: Ac-PDRKAAVSHWQV-NH2

T17: BC2T W10Q
T17 construct: positional scanning library member
T17 peptide: Ac-PDRKAAVSHQQQ-NH2


Key:
Assay in all cases: positional peptide library pulldown on immobilised Nb, LC-MS of supernatant; signal ratio to control GFP-Nb (1 = not captured, near 0 = captured)
BC2T Q11G = target: T1, BC2T Q11G
From the text: (§1) In total, 12 different BC2T libraries displaying all 20 proteinogenic amino acids in one single position of the peptide were used in immunoprecipitation experiments. […] The direct comparison with the GFP-Nb made it possible to determine the quantitative degree of peptide capture without the need of labeled standards. […] The more peptide was captured the more the value approximates 0. It was not possible to discriminate between isoleucine (I) and leucine (L) peptide versions since these peptides are isobaric.
(§2) To investigate the binding specificity of the BC2T and derived mutants peptide libraries for each amino acid position of the sequence […] (SEQ ID NO:4) were synthesized with acetyl and amide groups located at the N-termini or C-termini respectively (Intavis). […] Incubations were performed in 300 μl PBS/0.01% CHAPS for 1 h on a HulaMixer (Life Technologies). Subsequent to a centrifugation step 10 μl supernatant were analyzed in a LC-MS procedure. Peptides were separated using an UltiMate3000 RSLCnano System (Thermo Scientific), composed of a C18 PepMap100μ-Precolumn (300 μm×5 mm; particle size: 5 μm; pore size: 100 Å—Thermo Scientific) and a C18 analytical column (Acclaim Rapid Separation LC (RSLC) Column: 150 mm×5 mm; particle size: 2.2 μm; pore size: 100 Å—Thermo Scientific). A step gradient was applied starting at 8% and ending after 20 min at 30% eluent B (80% acetonitrile, 20% H₂O, 0.1% formic acid).

BC2T Q11T = target: T2, BC2T Q11T
From the text: as §1, §2

BC2T Q11A = target: T3, BC2T Q11A
From the text: as §1, §2

BC2T S8G = target: T4, BC2T S8G
From the text: as §1, §2

BC2T S8R = target: T5, BC2T S8R
From the text: as §1, §2

BC2T Q12G = target: T6, BC2T Q12G
From the text: as §1, §2

BC2T Q12(I/L1) = target: T18, BC2T Q12(I/L1) (N-terminal acetyl; C-terminal amide)
T18 construct: positional scanning library member; I or L not resolved
From the text: as §1, §2

BC2T H9R = target: T7, BC2T H9R
From the text: as §1, §2

BC2T H9P = target: T8, BC2T H9P
From the text: as §1, §2

BC2T Q12P = target: T9, BC2T Q12P
From the text: as §1, §2

BC2T Q12(I/L2) = target: T19, BC2T Q12(I/L2) (N-terminal acetyl; C-terminal amide)
T19 construct: positional scanning library member; I or L not resolved
From the text: as §1, §2

BC2T S8T = target: T10, BC2T S8T
From the text: as §1, §2

BC2T Q11K = target: T11, BC2T Q11K
From the text: as §1, §2

BC2T W10A = target: T12, BC2T W10A
From the text: as §1, §2

BC2T Q12Y = target: T13, BC2T Q12Y
From the text: as §1, §2

BC2T S8H = target: T14, BC2T S8H
From the text: as §1, §2

BC2T W10(I/L1) = target: T20, BC2T W10(I/L1) (N-terminal acetyl; C-terminal amide)
T20 construct: positional scanning library member; I or L not resolved
From the text: as §1, §2

BC2T Q11S = target: T15, BC2T Q11S
From the text: as §1, §2

BC2T Q12V = target: T16, BC2T Q12V
From the text: as §1, §2

BC2T S8(I/L1) = target: T21, BC2T S8(I/L1) (N-terminal acetyl; C-terminal amide)
T21 construct: positional scanning library member; I or L not resolved
From the text: as §1, §2

BC2T W10Q = target: T17, BC2T W10Q
From the text: as §1, §2

Binder	ratio (BC2T Q11G)	ratio (BC2T Q11T)	ratio (BC2T Q11A)	ratio (BC2T S8G)	ratio (BC2T S8R)	ratio (BC2T Q12G)	ratio (BC2T Q12(I/L1))	ratio (BC2T H9R)	ratio (BC2T H9P)	ratio (BC2T Q12P)	ratio (BC2T Q12(I/L2))	ratio (BC2T S8T)	ratio (BC2T Q11K)	ratio (BC2T W10A)	ratio (BC2T Q12Y)	ratio (BC2T S8H)	ratio (BC2T W10(I/L1))	ratio (BC2T Q11S)	ratio (BC2T Q12V)	ratio (BC2T S8(I/L1))	also measured
BC2 nanobody (VHH, immobilised on beads in this assay; also called BC2-Nb; BC2 nanotrap (immobilised)) VHH: QVQLVESGGGLVQPGGSLTLSCTASGFTLDHYDIGWFRQAPGKEREGVSCINNSDDDTYYADSVKGRFTIFMDNAKDTVYLQMNSLKPEDTAIYYCAEARGCKRGRYEYDFWGQGTQVTVSS	0.1	0.1	0.1	0.5	0.5	0.2	0.1	0.1	0.8	0.1	0.1	0.1	0	1	0.1	0.7	1	0.1	0.1	0.4	ratio (BC2T W10Q): 1.1
BC2-NbR106S (VHH, headlock mutant of BC2-Nb; immobilised on beads in this assay) VHH: QVQLVESGGGLVQPGGSLTLSCTASGFTLDHYDIGWFRQAPGKEREGVSCINNSDDDTYYADSVKGRFTIFMDNAKDTVYLQMNSLKPEDTAIYYCAEARGCKRGSYEYDFWGQGTQVTVSS	0.5	0.2	0.4	0.9	0.9	0.4	0.2	0.2	1	0.2	0.2	0.2	0.1	1	0.3	0.9	1.1	0.2	0.2	0.6	ratio (BC2T W10Q): 1.1
